Laboratory results from patent publication US8518892B2, “Methods to treat symptoms of pathophysiology related to body mass” (Board of Supervisors of Louisiana State University and …, priority 2005, dated 2013).

System: DIO C57BL/6J mice
Assay: Enho 1 ip for 7 days in DIO C57BL/6J mice (Examples 23-25)
Format: in vivo, mouse
Experimental: (§1) The effect of Enho-1 upon weight loss was tested over the course of 7 days using DIO C57BL/6J mice (Charles River Laboratories). The mice were fed a high fat diet (Research Diets 12492) for 10 weeks prior to the start of the experiment, which was begun when the mice were 15-16 weeks of age. Control mice received vehicle only while test mice each received doses of either 90 nmol/kg/d, 900 nmol/kg/d or 9000 nmol/kg/d. The injections were given as 3 ip injections at 0800, 1200 and 1600 h for 7 days. On day 8, the mice were given the 0800 h injection and were sacrificed 1-3 h later.
as §1, with “insulin and glucose” for “weight loss”, “later at which time blood samples were collected and levels of insulin and glucose determined.” for “later.”
The HOMA-IR for each treatment was calculated using the following formula: ((glucose mg/dL÷18)×(insulin ng/ml×25.05))÷22.5
as §1, with “levels of blood lipids” for “weight loss”, “later at which time blood samples were collected and levels of trigylcerides determined. Triglycerides were measured using a Triglyceride L-Type TG H kit (Wako Diagnostics).” for “later.”

[1] = 90 nmol/kg/d ip, listed as Enho-1
[2] = 900 nmol/kg/d ip, listed as Enho-1
[3] = 9000 nmol/kg/d ip, listed as Enho-1

B1: Enho 1: human Enho 1, a 76 amino acid peptide having the sequence SEQ ID NO: 14 (peptide, listed as Homo sapiens)
chain: MGAAISQGALIAIVCNGLVGFLLLLLWVILCWACHSRSADVDSLSESSPNSSPGPCPEKAPPPQKPSHEGSYLLQP
90 nmol/kg/d ip
  Blood glucose: 182 mg/dL
  Delta body weight: 6.6%
  HOMA-IR: 15
  HOMA-IR decrease as compared to the control group: 15%
  Insulin: 1.3 ng/mL
  TG (blood triglyceride level): 22.5 mg/dL
  Weight (pre-treatment): 36.5 g
  Weight (termination): 34.0 g
[1]
  Blood glucose: 182 ± 17 mg/dL
  HOMA-IR: 15 ± 2
  HOMA-IR decrease as compared to the control group: (↓ 32%)
  Insulin: 1.3 ± 0.1 ng/mL
  TG (blood triglyceride level): 22.5 ± 6.0 mg/dL
  Weight (pre-treatment): 36.5 ± 1.3 g
  Weight (termination): 34.0 ± 1.0 g
900 nmol/kg/d ip
  Blood glucose: 212 mg/dL
  Delta body weight: 7.1%
  HOMA-IR: 29
  HOMA-IR decrease as compared to the control group: 29%
  Insulin: 2.2 ng/mL
  TG (blood triglyceride level): 38.0 mg/dL
  Weight (pre-treatment): 37.9 g
  Weight (termination): 36.0 g
[2]
  Blood glucose: 212 ± 11 mg/dL
  HOMA-IR: 29 ± 4
  Insulin: 2.2 ± 0.3 ng/mL
  TG (blood triglyceride level): 38.0 ± 12.5 mg/dL
  Weight (pre-treatment): 37.9 ± 1.4 g
  Weight (termination): 36.0 ± 1.2 g
9000 nmol/kg/d ip
  Blood glucose: 190 mg/dL
  Delta body weight: 6.7%
  HOMA-IR: 16
  HOMA-IR decrease as compared to the control group: 27%
  Insulin: 1.3 ng/mL
  TG (blood triglyceride level): 18.5 mg/dL
  TG decrease from the control: 19%
  Weight (pre-treatment): 33.8 g
  Weight (termination): 31.6 g
[3]
  Blood glucose: 190 ± 16 mg/dL
  HOMA-IR: 16 ± 4
  HOMA-IR decrease as compared to the control group: (↓ 27%)
  Insulin: 1.3 ± 0.2 ng/mL
  TG (blood triglyceride level): 18.5 ± 1.7 mg/dL
  TG decrease from the control: (↓ 19%)
  Weight (pre-treatment): 33.8 ± 0.8 g
  Weight (termination): 31.6 ± 0.7 g
